Each binder was assayed against extracellular matrix (ECM; BD Matrigel) (assay: ECL on Matrigel-coated plate, signal divided by that of MRAH-G1d/MRAL-k0).

Row | ECM binding ratio (standard = 1) (ratio to standard antibody) | Binder
1 | 50.4 | TR01H040-E2702GsKsc/H0610-E2704sEpsc/L0208-k0 (bispecific antibody, human IgG4 S228P, kappa, N297A) heavy 1: QVQLVESGGGLVQPGRSLRLSCAASGFTFSNAWMHWVRQAPGKGLEWVAQIKDKSQNYATYYAESVKGRFTISRADSKNSIYLQMNSLKTEDTAVYYCRYVHYSASYGVDAWGQGTTVTVSSASTKGPSVFPLAPCSRSTSESTAALGCLVKDYFPEPVTVSWNSGALTSGVHTFPAVLQSSGLYSLSSVVTVPSSSLGTKTYTCNVDHKPSNTKVDKRVESKYGPPCPPCPAPEFRGGPKVFLFPPKPKDTLMISRTPEVTCVVVDVSQEDPEVQFNWYVDGVEVHNAKTKPREEQFASTYRVVSVLTVLHQDWLNGKEYKCKVSNKGLPSSIEKTISKAKGQPREPQVYTLPPSQKEMTKNQVSLTCLVKGFYPSDIAVEWESNGQPENNYKTTPPVLDSDGSFFLYSKLTVDKSRWQEGNVFSCSVMHEALHNRYTQKSLSLSP heavy 2: QVQLVQSGAEVKKPGASVKVSCKASGYTFTDYEMHWIRQPPGQGLEWIGAIDGKTPDTAYSQKFKGRVTLTADKSTSTAYMELSSLTSEDTAVYYCTRFYSYTYWGQGTLVTVSSASTKGPSVFPLAPCSRSTSESTAALGCLVKDYFPEPVTVSWNSGALTSGVHTFPAVLQSSGLYSLSSVVTVPSSSLGTQTYTCNVDHKPSNTKVDKRVESKYGPPCPPCPAPEFRGGPKVFLFPPKPKDTLMISRTPEVTCVVVDVSQEDPEVQFNWYVDGVEVHNAKTKPREEQFASTYRVVSVLTVLHQDWLNGKEYKCKVSNKGLPSSIEKTISKAKGQPREPQVYTLPPSQEEMTKNQVSLTCLVKGFYPSDIAVEWESNGQPENNYKTTPPVLDSDGSFFLYSKLTVDKSRWQEGNVFSCSVMHEALHNHYTQESLSLSP light: DIVMTQSPLSLPVTPGEPASISCRSSQSPVHSNRNTYLHWYQQKPGQAPRLLIYKVSNRFWGVPDRFSGSGSGTDFTLKISRVEAEDVGVYYCYQGTQVPYTFGQGTKLEIKRTVAAPSVFIFPPSDEQLKSGTASVVCLLNNFYPREAKVQWKVDNALQSGNSQESVTEQDSKDSTYSLSSTLTLSKADYEKHKVYACEVTHQGLSSPVTKSFNRGEC
2 | 15.5 | TR01H040-E2702GsKsc/H0610-E2704sEpsc/L0211-k0 (bispecific antibody, human IgG4 S228P, kappa, N297A) heavy 1: QVQLVESGGGLVQPGRSLRLSCAASGFTFSNAWMHWVRQAPGKGLEWVAQIKDKSQNYATYYAESVKGRFTISRADSKNSIYLQMNSLKTEDTAVYYCRYVHYSASYGVDAWGQGTTVTVSSASTKGPSVFPLAPCSRSTSESTAALGCLVKDYFPEPVTVSWNSGALTSGVHTFPAVLQSSGLYSLSSVVTVPSSSLGTKTYTCNVDHKPSNTKVDKRVESKYGPPCPPCPAPEFRGGPKVFLFPPKPKDTLMISRTPEVTCVVVDVSQEDPEVQFNWYVDGVEVHNAKTKPREEQFASTYRVVSVLTVLHQDWLNGKEYKCKVSNKGLPSSIEKTISKAKGQPREPQVYTLPPSQKEMTKNQVSLTCLVKGFYPSDIAVEWESNGQPENNYKTTPPVLDSDGSFFLYSKLTVDKSRWQEGNVFSCSVMHEALHNRYTQKSLSLSP heavy 2: QVQLVQSGAEVKKPGASVKVSCKASGYTFTDYEMHWIRQPPGQGLEWIGAIDGKTPDTAYSQKFKGRVTLTADKSTSTAYMELSSLTSEDTAVYYCTRFYSYTYWGQGTLVTVSSASTKGPSVFPLAPCSRSTSESTAALGCLVKDYFPEPVTVSWNSGALTSGVHTFPAVLQSSGLYSLSSVVTVPSSSLGTQTYTCNVDHKPSNTKVDKRVESKYGPPCPPCPAPEFRGGPKVFLFPPKPKDTLMISRTPEVTCVVVDVSQEDPEVQFNWYVDGVEVHNAKTKPREEQFASTYRVVSVLTVLHQDWLNGKEYKCKVSNKGLPSSIEKTISKAKGQPREPQVYTLPPSQEEMTKNQVSLTCLVKGFYPSDIAVEWESNGQPENNYKTTPPVLDSDGSFFLYSKLTVDKSRWQEGNVFSCSVMHEALHNHYTQESLSLSP light: DIVMTQSPLSLPVTPGEPASISCRSSQPPVHSNRNTYLHWYQQKPGQAPRLLIYKVSNRFSGVPDRFSGSGSGTDFTLKISRVEAEDVGVYYCYQGTQVPYTFGQGTKLEIKRTVAAPSVFIFPPSDEQLKSGTASVVCLLNNFYPREAKVQWKVDNALQSGNSQESVTEQDSKDSTYSLSSTLTLSKADYEKHKVYACEVTHQGLSSPVTKSFNRGEC
3 | 7.4 | TR01H040-E2702GsKsc/H0610-E2704sEpsc/L0209-k0 (bispecific antibody, human IgG4 S228P, kappa, N297A) heavy 1: QVQLVESGGGLVQPGRSLRLSCAASGFTFSNAWMHWVRQAPGKGLEWVAQIKDKSQNYATYYAESVKGRFTISRADSKNSIYLQMNSLKTEDTAVYYCRYVHYSASYGVDAWGQGTTVTVSSASTKGPSVFPLAPCSRSTSESTAALGCLVKDYFPEPVTVSWNSGALTSGVHTFPAVLQSSGLYSLSSVVTVPSSSLGTKTYTCNVDHKPSNTKVDKRVESKYGPPCPPCPAPEFRGGPKVFLFPPKPKDTLMISRTPEVTCVVVDVSQEDPEVQFNWYVDGVEVHNAKTKPREEQFASTYRVVSVLTVLHQDWLNGKEYKCKVSNKGLPSSIEKTISKAKGQPREPQVYTLPPSQKEMTKNQVSLTCLVKGFYPSDIAVEWESNGQPENNYKTTPPVLDSDGSFFLYSKLTVDKSRWQEGNVFSCSVMHEALHNRYTQKSLSLSP heavy 2: QVQLVQSGAEVKKPGASVKVSCKASGYTFTDYEMHWIRQPPGQGLEWIGAIDGKTPDTAYSQKFKGRVTLTADKSTSTAYMELSSLTSEDTAVYYCTRFYSYTYWGQGTLVTVSSASTKGPSVFPLAPCSRSTSESTAALGCLVKDYFPEPVTVSWNSGALTSGVHTFPAVLQSSGLYSLSSVVTVPSSSLGTQTYTCNVDHKPSNTKVDKRVESKYGPPCPPCPAPEFRGGPKVFLFPPKPKDTLMISRTPEVTCVVVDVSQEDPEVQFNWYVDGVEVHNAKTKPREEQFASTYRVVSVLTVLHQDWLNGKEYKCKVSNKGLPSSIEKTISKAKGQPREPQVYTLPPSQEEMTKNQVSLTCLVKGFYPSDIAVEWESNGQPENNYKTTPPVLDSDGSFFLYSKLTVDKSRWQEGNVFSCSVMHEALHNHYTQESLSLSP light: DIVMTQSPLSLPVTPGEPASISCRSSQSPVHSNRNTYIHWYQQKPGQAPRLLIYKVSNRFSGVPDRFSGSGSGTDFTLKISRVEAEDVGVYYCYQGTQVPYTFGQGTKLEIKRTVAAPSVFIFPPSDEQLKSGTASVVCLLNNFYPREAKVQWKVDNALQSGNSQESVTEQDSKDSTYSLSSTLTLSKADYEKHKVYACEVTHQGLSSPVTKSFNRGEC

The remaining lines, values behind:

Row | Binder | ECM binding ratio (standard = 1) (ratio to standard antibody)
4 | TR01H040-E2702GsKsc/H0610-E2704sEpsc/L0204-k0 (bispecific antibody, human IgG4 S228P, kappa, N297A) heavy 1: QVQLVESGGGLVQPGRSLRLSCAASGFTFSNAWMHWVRQAPGKGLEWVAQIKDKSQNYATYYAESVKGRFTISRADSKNSIYLQMNSLKTEDTAVYYCRYVHYSASYGVDAWGQGTTVTVSSASTKGPSVFPLAPCSRSTSESTAALGCLVKDYFPEPVTVSWNSGALTSGVHTFPAVLQSSGLYSLSSVVTVPSSSLGTKTYTCNVDHKPSNTKVDKRVESKYGPPCPPCPAPEFRGGPKVFLFPPKPKDTLMISRTPEVTCVVVDVSQEDPEVQFNWYVDGVEVHNAKTKPREEQFASTYRVVSVLTVLHQDWLNGKEYKCKVSNKGLPSSIEKTISKAKGQPREPQVYTLPPSQKEMTKNQVSLTCLVKGFYPSDIAVEWESNGQPENNYKTTPPVLDSDGSFFLYSKLTVDKSRWQEGNVFSCSVMHEALHNRYTQKSLSLSP heavy 2: QVQLVQSGAEVKKPGASVKVSCKASGYTFTDYEMHWIRQPPGQGLEWIGAIDGKTPDTAYSQKFKGRVTLTADKSTSTAYMELSSLTSEDTAVYYCTRFYSYTYWGQGTLVTVSSASTKGPSVFPLAPCSRSTSESTAALGCLVKDYFPEPVTVSWNSGALTSGVHTFPAVLQSSGLYSLSSVVTVPSSSLGTQTYTCNVDHKPSNTKVDKRVESKYGPPCPPCPAPEFRGGPKVFLFPPKPKDTLMISRTPEVTCVVVDVSQEDPEVQFNWYVDGVEVHNAKTKPREEQFASTYRVVSVLTVLHQDWLNGKEYKCKVSNKGLPSSIEKTISKAKGQPREPQVYTLPPSQEEMTKNQVSLTCLVKGFYPSDIAVEWESNGQPENNYKTTPPVLDSDGSFFLYSKLTVDKSRWQEGNVFSCSVMHEALHNHYTQESLSLSP light: DIVMTQSPLSLPVTPGEPASISCRSSQSPVHSNRNTYLHWYQQKPGQAPRLLIYKVSNRFRGVPDRFSGSGSGTDFTLKISRVEAEDVGVYYCGQGTQVPYTFGQGTKLEIKRTVAAPSVFIFPPSDEQLKSGTASVVCLLNNFYPREAKVQWKVDNALQSGNSQESVTEQDSKDSTYSLSSTLTLSKADYEKHKVYACEVTHQGLSSPVTKSFNRGEC | 4.4
5 | TR01H040-E2702GsKsc/H0610-E2704sEpsc/L0206-k0 (bispecific antibody, human IgG4 S228P, kappa, N297A) heavy 1: QVQLVESGGGLVQPGRSLRLSCAASGFTFSNAWMHWVRQAPGKGLEWVAQIKDKSQNYATYYAESVKGRFTISRADSKNSIYLQMNSLKTEDTAVYYCRYVHYSASYGVDAWGQGTTVTVSSASTKGPSVFPLAPCSRSTSESTAALGCLVKDYFPEPVTVSWNSGALTSGVHTFPAVLQSSGLYSLSSVVTVPSSSLGTKTYTCNVDHKPSNTKVDKRVESKYGPPCPPCPAPEFRGGPKVFLFPPKPKDTLMISRTPEVTCVVVDVSQEDPEVQFNWYVDGVEVHNAKTKPREEQFASTYRVVSVLTVLHQDWLNGKEYKCKVSNKGLPSSIEKTISKAKGQPREPQVYTLPPSQKEMTKNQVSLTCLVKGFYPSDIAVEWESNGQPENNYKTTPPVLDSDGSFFLYSKLTVDKSRWQEGNVFSCSVMHEALHNRYTQKSLSLSP heavy 2: QVQLVQSGAEVKKPGASVKVSCKASGYTFTDYEMHWIRQPPGQGLEWIGAIDGKTPDTAYSQKFKGRVTLTADKSTSTAYMELSSLTSEDTAVYYCTRFYSYTYWGQGTLVTVSSASTKGPSVFPLAPCSRSTSESTAALGCLVKDYFPEPVTVSWNSGALTSGVHTFPAVLQSSGLYSLSSVVTVPSSSLGTQTYTCNVDHKPSNTKVDKRVESKYGPPCPPCPAPEFRGGPKVFLFPPKPKDTLMISRTPEVTCVVVDVSQEDPEVQFNWYVDGVEVHNAKTKPREEQFASTYRVVSVLTVLHQDWLNGKEYKCKVSNKGLPSSIEKTISKAKGQPREPQVYTLPPSQEEMTKNQVSLTCLVKGFYPSDIAVEWESNGQPENNYKTTPPVLDSDGSFFLYSKLTVDKSRWQEGNVFSCSVMHEALHNHYTQESLSLSP light: DIVMTQSPLSLPVTPGEPASISCRSSQSPVHSNRNTYLHWYQQKPGQAPRLLIYKVSNRFSGVPDRFSGSGSGTDFTLKISRVEAEDVGVYYCYQGTQVPYTFGQGTKLEIKRTVAAPSVFIFPPSDEQLKSGTASVVCLLNNFYPREAKVQWKVDNALQSGNSQESVTEQDSKDSTYSLSSTLTLSKADYEKHKVYACEVTHQGLSSPVTKSFNRGEC | 15.4

Source: patent publication US20170267783A1 (published 2017)
